# Measurements: patent publication US9956304B2, “Contrast agents, methods for preparing contrast agents, and methods of imaging” (GEORGIA STATE UNIVERSITY RESEARCH FOUNDATION, INC., priority 2012, dated 2018)
# Values joined by “and” are separate entries in the source; they are usually repeats but may differ in a detail not shown here. Identical values can stand only once.
# B1: ProCA32: parvalbumin-scaffold protein MRI contrast agent with two Gd3+ binding sites; calcium-binding protein variant (S56D, F103W) (protein)
# chain: MSMTDLLNAEDIKKAVGAFSATDSFDHKKFFQMVGLKKKSADDVKKVFHMLDKDKDGFIEEDELGFILKGFSPDARDLSAKETKMLMAAGDKDGDGKIGVEEWSTLVAES
# modifications: Gd3+ bound; ProCA3
# Columns and labels:
# [1] = Water coordination number by Tb3+ luminescence lifetime; format: physicochemical; conditions: Tb^3+ luminescence lifetime in H2O and D2O
# Procedure: The water coordination number of Tb^3+ in ProCA was measured by Tb^3+ luminescence lifetime experiments. The determined water number for calcium-binding protein WT is 1.3, which is consistent with reported value^31.
# Tb^3+ luminescent life time decay in H2O and D2O solvents is measured to characterize the water coordination number of the inner sphere of metal binding sites. WT calcium-binding protein has averaged water number of 1.3, which is consistent with reported value.
# [2] = T1- and T2-weighted MRI of liver and blood vessels; format: in vivo, mice
# Procedure: Because the enhanced T1- and T2-weighted images have different effects of imaging contrast (brighter or darker, respectively), there is an enhanced probability of detecting the targeted tumor tissue. In contrast, the currently available approved liver contrast agents such as Eovist® have a very short fast phase (sec.) and liver uptake phase (approximately 3 min) in human. The mouse halftime is much shorter. Due this limitation, with these agents, it is not possible to obtain both high quality imaging for small animal. For human, their applications are also limited by their low relaxivity and short half-life. It is possible to obtain very high quality imaging by applying our contrast agent to both low and high field strengths such as 0.47-9.4 T.
# Longer blood circulation of ProCA will benefit the MRI guided intervention therapy […], since such therapy usually performed for a very long time. Long blood circulation time of ProCA32 in blood also promising for the application of DCE-MRI. Arterial input function (AIF) in DCE-MRI experiment is the key experiment for successful calculating tumor permeability. However, it is hard to accurate determine AIF of current clinically available MRI contrast agents, since the blood circulation time of current clinically available MRI contrast agents is too short. […]
# [3] = Serum stability (SDS-PAGE, mass spectrum, immuno-blot); conditions: 50% serum
# [4] = mouse, in vivo
# [5] = r1 and r2 relaxivity, mini-spec 60 MHz 37 C; format: physicochemical
# [6] = Heat stability during purification; format: physicochemical
# Procedure: These protein solutions were load to FPLC equipped with Hi-trap Q column. After binding to the column, the unbounded component was first washed with 7 column volumes (CV) of buffer A (10 mM HEPES buffer at pH 8.0). Then, buffer B (10 mM HEPES buffer, 1 M NaCl at pH 8.0) concentration was increased to 25% within 7 CV. The column was further washed with 25% of buffer B for 2 CV and then increase to 100% of buffer B of 1 CV to wash out every component bounded to the column. The fractions with ProCA32 elutions were determined by UV abs and SDS-PAGE.
# [7] = mouse, in vivo; remark: listed apart in the source
# [8] = In vitro MRI detection limit, T1-weighted spin echo at 7 T; format: physicochemical; conditions: printed partly as 'at least'
# Description: Less contrast agents are acquired to acquired good image enhancement when the relaxivity of the contrast agent improved.
# [9] = r1 relaxivity at 7 T, inversion recovery; format: physicochemical; conditions: room temperature
# Description: With the development of high field MRI scanner, there is a strong need to develop the contrast agents with high relaxivity in high magnetic field strength. However, the relaxivity of macromolecular contrast agents always has dramatic drop at high magnetic field. Caravan and Luther point out the contrast agents with optimized relaxivity in high field should have a rotation correlation time (τR) around 2 ns. We tested our Gd-calcium-binding protein variants in 7 T Varian MRI scanner using inversion recovery sequence. […] Other ProCA3s also have a per Gd r1 relaxivity around 20 mM^−1s^−1 at 7 T and room temperature.
# [10] = Gd3+ binding affinity by Tb3+-chelator buffer system and Gd3+ competition; conditions: vs wild type protein scaffold
molecule,measurement,setting,value
B1,water coordination number,[1],0.4
same,water coordination number,[1]; listed as PROCA32,0.44
same,liver in T2-weighted sequence,[2]; 7 min after tail vein injection,the liver became darker
same,liver in T1-weighted spin echo,[2]; 15 min,the liver showing enhanced an MR signal
same,stable in serum,[3],at least 3 days
same,blood half-life longer than that of Gd-DTPA,[4],more than 100 times
same,per Gd r1,[5],30 mmol⁻¹ s⁻¹
same,per particle r1,[5],60 mmol⁻¹ s⁻¹
same,heat stability,[6],very stable at 90 °C
same,clearance,[7],about 0.13 l/kg
same,excretion half-life,[7],around 2.8 hours
same,concentration detectable in vitro by MRI,[8],2.5 µM and 2 µM
same,per Gd r1 relaxivity at 7 T,[9],18 mM⁻¹ s⁻¹
same,higher Tb^3+ and Gd^3+ binding affinity compared with wild type,[10],10^11 fold
